Experimental findings from patent US20230086210A1 (Hoffmann-La Roche, published 2023) are described below.

Experiment [1] has as its target T1, human PD-L1 on MKN45-huPD-L1 cells (human, UniProt Q9NZQ7 19-290).
T1 construct: The entry is the complete precursor; also called MKN45-PD-L1; human PD-L1-expressing MKN45 cells
The experiment is described as follows: flow cytometry on MKN45-huPD-L1 cells, area under the binding curve. The arrangement: unit not given beside the values. A general note: A flow cytometer gives signals particle by particle.

Experiment [2] addresses human 4-1BB on Jurkat-hu4-1BB-NFκB-luc2 reporter cells (human, UniProt Q07011 24-255). The experiment is described as follows: cell-based or functional assay. The arrangement: AUC of NFκB-activation-induced Luciferase activity curve: unit not given beside the values.
The target of experiment [3] is T1, human PD-L1 on MKN45-huPD-L1 cells. Description: flow cytometry on MKN45-huPD-L1 cells, PE-conjugated goat F(ab')2 anti-human Fcγ, geo mean of fluorescence, baseline corrected.
Description: All values are baseline corrected by subtracting the baseline values of the blank control (e.g. no primary only secondary detection antibody).
Cells were incubated for 30 min at 4° C. and then washed twice with 80 μL/well DPBS. […] Cells were washed twice with 80 μL/well DPBS and then fixed in 30 μL/well DPBS containing 1% formaldehyde for at least 15 minutes.

human 4-1BB on Jurkat-hu4-1BB-NFκB-luc2 reporter cells, sequence (Q07011 24-255): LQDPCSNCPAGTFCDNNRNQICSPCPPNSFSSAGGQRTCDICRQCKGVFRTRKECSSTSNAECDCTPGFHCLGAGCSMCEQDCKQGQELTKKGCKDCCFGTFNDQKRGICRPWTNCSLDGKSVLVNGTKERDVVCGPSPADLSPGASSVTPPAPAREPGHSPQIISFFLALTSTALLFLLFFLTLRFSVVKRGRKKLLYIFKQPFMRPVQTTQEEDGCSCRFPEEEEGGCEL
T1 sequence (Q9NZQ7 19-290 limits assumed): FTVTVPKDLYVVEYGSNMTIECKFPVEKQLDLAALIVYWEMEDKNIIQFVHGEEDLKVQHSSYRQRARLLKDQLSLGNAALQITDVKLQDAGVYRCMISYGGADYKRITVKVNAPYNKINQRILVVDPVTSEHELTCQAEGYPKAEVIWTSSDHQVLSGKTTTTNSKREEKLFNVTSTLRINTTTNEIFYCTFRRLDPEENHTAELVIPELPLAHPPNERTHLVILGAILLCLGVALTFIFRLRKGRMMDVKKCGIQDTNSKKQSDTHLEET

B1: 4-1BB huIgG1 P329G LALA (anti-human 4-1BB clone 20H4.9 as huIgG1 P329G LALA) (antibody, V domains shown)
VH: QVQLQQWGAGLLKPSETLSLTCAVYGGSFSGYYWSWIRQSPEKGLEWIGEINHGGYVTYNPSLESRVTISVDTSKNQFSLKLSSVTAADTAVYYCARDYGPGNYDWYFDLWGRGTLVTVSS
VL: EIVLTQSPATLSLSPGERATLSCRASQSVSSYLAWYQQKPGQAPRLLIYDASNRATGIPARFSGSGSGTDFTLTISSLEPEDFAVYYCQQRSNWPPALTFGGGTKVEIK
notes: Human IgG1 with P329G L234A L235A
With B1, in experiment [1], the AUC stood at 432. Moreover, in experiment [2], the “AUC of NFκB-activation-induced Luciferase activity curve” value was 8870 and the “EC50 of NFκB-activation-induced Luciferase activity curve” value (from here on “EC50”) is 0.32 nM. The binding result in experiment [3] was “no binding (tested: 100 nM)”.

B2: 4-1BB×PD-L1 2+1 (bispecific agonistic 4-1BB×PD-L1 antibody with bivalent binding to 4-1BB (clone 20H4.9) and monovalent binding to PD-L1, Head to Head 2+1 … (bispecific antibody)
heavy 1: QVQLQQWGAGLLKPSETLSLTCAVYGGSFSGYYWSWIRQSPEKGLEWIGEINHGGYVTYNPSLESRVTISVDTSKNQFSLKLSSVTAADTAVYYCARDYGPGNYDWYFDLWGRGTLVTVSSASTKGPSVFPLAPSSKSTSGGTAALGCLVEDYFPEPVTVSWNSGALTSGVHTFPAVLQSSGLYSLSSVVTVPSSSLGTQTYICNVNHKPSNTKVDEKVEPKSCDKTHTCPPCPAPEAAGGPSVFLFPPKPKDTLMISRTPEVTCVVVDVSHEDPEVKFNWYVDGVEVHNAKTKPREEQYNSTYRVVSVLTVLHQDWLNGKEYKCKVSNKALGAPIEKTISKAKGQPREPQVCTLPPSRDELTKNQVSLSCAVKGFYPSDIAVEWESNGQPENNYKTTPPVLDSDGSFFLVSKLTVDKSRWQQGNVFSCSVMHEALHNHYTQKSLSLSP
heavy 2: not shown
light 1: not shown
light 2: not shown
As to B2, in experiment [2], the “AUC of NFκB-activation-induced Luciferase activity curve” value came to 135000 and the “EC50” value was 0.037 nM.

B3: 4-1BB×PD-L1 1+1 (bispecific antibody with monovalent binding to 4-1BB (clone 20H4.9) and monovalent binding to PD-L1) (bispecific antibody)
heavy 1: B2 heavy 1
heavy 2: not shown
light 1: not shown
light 2: not shown
Turning to B3, in experiment [2], the “AUC of NFκB-activation-induced Luciferase activity curve” value turned out to be 122000 and the “EC50” value turned out to be 0.097 nM.
